Literature values, collected in paper PMC8297464.

Tests used:
ACE2 (Homo sapiens) = ACE2 (Homo sapiens) (UniProt Q9BYF1)
[1] = biological target: Spike RBD RBD (SARS-CoV-2) (UniProt P0DTC2)

Sequence of Human defensin 5 (Q01523 63-94): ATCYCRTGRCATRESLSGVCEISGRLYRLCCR

Substance: Human defensin 5 (from UniProt Q01523)
- Kd (ACE2 (Homo sapiens)): 39.3 nM

Substance: SBP1 α1 helix 23-mer (from UniProt Q9BYF1)
- Kd [1]: 47 nM
